Test results as given in the DeepSol protein solubility set.

experiment: soluble on expression in E. coli; label from the status in PepcDB or PDB records

Soluble on expression in E. coli, not soluble:
MTIKEDLGRRIKAERNRKQLTQSLLCGDETKLTIRQLQRIEGGQSLPTLEKLEFIADRLGTKIADLLEGSDIQLPDDYWELKGQIVKFPTYADKERLQQKQELIEEIYDKYFDILPEDELLFLDLSENILDSFHEKDIPNIEEIYDDAFEQVLKKETFAFNDYLYMSYFLQKCGKTADYDQTTFKLLEQKLLKQELTVDELYNIELLIAVMEASGVYALHNDYQNLLPLMKKAQRIIDKAQLHTYKPPLLELEAKYYVKVVKDKKKAKELYQQALVMGEVLGDPVIIADVKMEMANDGID, MGSDKIHHHHHHMMQTDQRILLVGTPSERLSRLCCIFEFLGEQIDIITIEKLSTCLQETRFRALVISIDNMSADALKLVASQYPWQPILLFGHVGELQVSNVLGHIEEPLNYPQLTELLHFCQVYGQVKRPQVPTSANQTKLFRSLVGRSDGIANVRHLISQVATSDATVLVLGQSGTGKEVVARNIHYLSERRDGPFIPVNCGAIPPELLESELFGHEKGSFTGAISSRKGRFELAEGGTLFLDEIGDMPLQMQVKLLRVLQERVFERVGGTKTINADVRVVAATHRDLETMISSNEFREDLYYRLNVFPIEMPALSERKDDVPLLLQELVSRVYNEGRGKVRFTQRAIESLKEHAWSGNVRELSNLVERLTILYPGGLVDVNDLPIKYRHIDVPEYSVELSEEQQERDALASIFTSEEPVEIPETRFPSELPPEGVNLKDLLAELEIDMIRQALEQQDNVVARAAEMLGIRRTTLVEKMRKYGMTKE, MGVRLAVRCFVVDGVLIDTGAKSMENEFTSFFQQQDIDQVVITHFHEDHTGCAAFLQRSMGLPIYMNEPMIEYCRQKADYPLYRKIFWGKRDPFAAKPIGATFSSRNATWDVIPTPGHAIDHVVFLNRETGQLFSGDLYCQEKTKVILREEDIPTIIASLQHVLTYDFGDVFCAHAGYLPLEHHHHHH, MGSDKIHHHHHHMPGFSADLDCVPGSIRSQVEENYRVWRRAWITSSAQPAVNSSGRALRLQPRHTAQRRTASESGADAGGELNGITIPTTATTRYAERRGISIVRTYADEGKSGLRIDGRRALQQLIKDVEGGTADFQIILVYDVSRWGRFQDADESAYYECICRRAGIQVAYCAEQFENDGSPVSTIVKGVKRAMAREYSRELSAKVFAGQCRLIELGYRQGSPAGFGLRRVLIDQQGSSKGMLARGEQKSLQTDRVVLMPGPGDEIRIVHQIYRWFIDEGLGDSEIAMRLNSIRVRTDFDRYWTRATVHEVLTNEKYIGNNVYNRISFKLKKLRVVNTPDMWDQKGRRV, MNAYCLTLNDTNIAIEKKDIKHLHISVCPPDGSVHVSCPLALNDESLRLSLIKRLHWIKEQQQNFLNQNRQSQRGMLERESHYLFGKRYLLKIEHTTKKHFVLQNPKYLILHVHQKTSLENRLKVLENYYRQVLREKIQTCINRYEKILNESIQSFKIQKMKRIWGSCNIAKRALLFNLELAKVPRKGIEYVVVHELLHLKTRHHNEYFRDLLSLYLPNWQRAKASLKETYLERSLEHHHHHH, MRPYKRVLIKLSGGALADQTGNSFNSKRLEHIANEILSIVDLGIEVSIVIGGGNIFRGHLAEEWGIDRVEADNIGTLGTIINSLMLRGVLTSKTNKEVRVMTSIPFNAVAEPYIRLRAVHHLDNGYIVIFGGGNGQPFVTTDYPSVQRAIEMNSDAILVAKQGVDGVFTSDPKHNKSAKMYRKLNYNDIVRQNIQVMDQAALLLARDYNLPAHVFNFDEPGVMRRICLGEHVGTLINDDVSMLVREKLEHHHHHH, MSLFQMSYYYSGLGWDFIQHVDQTNGVLNVVSPDFFYIRKDGSLLLRSANPDVIKALHRRKLKVVPFLSNHWDQDLGRFALMNRVLLAKQISHAIEELDLDGVNIDIENLTEKDRNLFTDFIRLVRKSIPRHKEVSVAVAANPFGWTKGWHGSYDYEYLAKYADYLMVMAYDESRLAGPTASVGWVEKSIQYVLTQKISPQKLVLGLPFYGRCWMEGQSASQAIPLYLVVSKKAEGHHHHHH, MNRARKTSSCGCFRSAFCLLKPSTSSASEEHGDSDKKLLSVQLITPRDEEEQTSSRSIKIPPLDLNGLDCKKNAVAARRAGRRRTSEGGGVRGKGHFAEVVLDGLQRPVSLLRNQKEKSNSDDNCQEKEPTSPSSSRKKSYDNAPALESLEKLRYILHQLNSGQLPLEDLKRNIEYAALVLETAYMDETRRICDEDDDLAEVTPETVPDEVREWLAATFTRQNAGKKRDKPKFKSVANAIRTGIFFEKLFRKQQVVQCPIPPEIAELMKEVCTWSFSPFQLNEVSEGHALKYVGFELFNRYGFMDRFKVPLTALENYLSALEVGYSKHNNPYHNVVHAADVTQSSHFMLSQTGLANSLGDLELLAVLFGALIHDYEHTGHTNNFHIQSQSQFAMLYNDRSVLENHHVSSCFRLMKEDDKNILTHLTRDEYKELRNMVIEIVLATDMSTHFMQIKTMKSMLSLPEGIDKNKALCLIVHACDISHPAKPWNLHERWTEGVLEEFFRQGDLEASMGLPYSPLCDRHTVHVADSQIGFIDFIVEPTMVVCGELLVKMVEPLVSLPPTDSLFPPSVDGGDDKSPSNALSPLPDLRNSSTSPSSIRRIPLNYAGKLDIPTPWMKFLHENKAHWKERAAKEEEERKIKEAAEAEAAAKQVEENKENGVTTN, MGSDKIHHHHHHMSLITDLPAIFDQFSEARQKGFLTVMDLKEQNVPLVGTYCTFMPQEIAMAAGAVVVSLCSTSDETIEEAEKDLPRNLCPLIKSSYGFGKTDKCPYFYFSDLVVGETTCDGKKKMYEYMAEFKAVHVMQLPNSASDAASRALWKTEILRLQQVIEARFGTPISEAALREAIVLKNRERRALAHFYRLGQLNPPALSGGDILKVVYGATFRFDKTALIDELHAMAERIHQEWQQGKRLEPRPRILITGCPIGGAAEKVVRAIEENGGWVVGYENCTGAKATERCVAEEGDVYDALTDKYLAIGCSCISPNDQRLQLLSQMVEEYQADGVIDVILQACHTYAVESLAIKRHLRQQHDLPYMAIETDYSTADLGQLSTRVAAFIEML, MAHHHHHHMRNSFFPMLCEKQSTPELEAMPLYLPDTVVLQLHRHDGEAEFADYMDANSLTFVALGDAERPALCGIDATAQLHYEGAQRTLVSAAGIVSGIRRRRLRVPFGMSELSELLRRAYNTEKGNRNNSLTGSTETVLLTHLFSDAVWAEESFHCLSTTRRVGNILGSTGIGSATRDLAVERWRLDQDIMELRDELMIARTVYDYRHCGYESNRSISGMEEEGMKRVNAIQSNREEERKWQLSVFCERAKHEAEKMIKELEQRGGATLDELQKTLEAKKRESSALQADRENRIWEYEHTLEKIRTRKQDEESASERLRQAMQQLEQELSLRQSAIETREQQLEMVQLDGARGREAIMRERHSIEAVSPAEAVDPSD, MPTPKAFALLGPTAGGKTALALKIAETLPVEIISLDSALVYRDMDIGTAKPSASERAFVPHHLIDIIPPTESYSAARFVEDCTRLVGEISSRGRFALIVGGTMMYFRALTQGLNDLPEADACLRADLDEQKQMYGLDFLYRTLQKVDPETACRLKPNDSQRIGRALEVYYLTGKPMSTHLGSLTSHTLPFDLHTAALIPENRARLHENIALRFHLMLEQGFIGEVENLRRRYPGLTAYSPAIRCVGYRQAWKYLDGKTDFPAFVEKGIAATRQLAKRQLTWLRKTPLDCVADPFSDCTSCTRLIEAAKRFFGA

Soluble on expression in E. coli, soluble:
SAQEKMELDLELPPGTGGSPAEGGGSGGGGGLRRSNSAPLIHGLSDTSPVFQAEAPSARRNSTTFPSRHGLLLPASPVRMHSSRLHQIKQEEGMDLINRETVHEREVQTAMQISHSWEESFSLSDNDVEKSASPKRIDFIPVSPAPSPTRGIGKQCFSPSLQSFVSSNGLPPSPIPSPTTRFTTRRSQSPINCIRPSVLGPLKRKCEMETEYQPKRFFQGITNMLSSDVAQLSDPGVCVSSDTLDGNSSSAGSSCNSPAKVSTTTDSPVSPAQAASPFIPLDELSSK, MSKNYHIAVLPGDGIGPEVMAQALKVMDAVRSRFDMRITTSHYDVGGIAIDNHGHPLPKATVEGCEQADAILFGSVGGPKWENLPPESQPERGALLPLRKHFKLFSNLRPAKLYQGLEAFCPLRADIAANGFDILCVRELTGGIYFGQPKGREGSGQYEKAFDTEVYHRFEIERIARIAFESARKRRRKVTSIDKANVLQSSILWREIVNDVAKTYPDVELAHMYIDNATMQLIKDPSQFDVLLCSNLFGDILSDECAMITGSMGMLPSASLNEQGFGLYEPAGGSAPDIAGKNIANPIAQILSLALLLRYSLDANDAATAIEQAINRALEEGVRTGDLARGAAAVSTDEMGDIIARYVAEGV
